Results as given in paper PMC2064651.

Target: ADP/ATP carrier (S. cerevisiae (endogenous in strain GA74)) (UniProt P18239)
Assay: native gel or EMSA

stoichiometry N: 2
Substance: ADP/ATP carrier (from UniProt P18239 1-318) (natural protein)
